In the supplement of paper PMC7125110:
± gives the standard error. For part of these data: This sample holds only a part of the variants without activity.

B1: glmS ribozyme (parent)
chain: AUAAAAGCGCCAGAACUACAGAAAUGUAGUUGACGAGGAGGAGGUUUAUCGAAUUUUCGGCGGAUGCCUCCAAA

Experiments:
Conditions in all cases: with glucosamine-6-phosphate
glucosamine-6-phosphate [1] = variants of: B1; assay: kcat; higher = faster cleavage; RNA array
Method in brief: (§1)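 Barcoded glmS ribozyme variants on sequenced MiSeq chips were transcribed in situ by E. coli RNA polymerase and tracked through a hybridised Cy3 probe at 37 °C. Glucosamine-6-phosphate (40 μM to 10 mM) in HEPES/KCl/Mg(OAc)2 buffer was flowed in, and tiles were imaged over ~14 h. Signals were normalised to baseline and to non-cleaving reference variants; per-tile medians were fit to one- or two-exponential decays to give kobs. kcat and KM came from weighted Michaelis–Menten fits across concentrations.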

glucosamine-6-phosphate [2] = variants of: B1; assay: self-cleavage kobs at 40 uM GlcN6P; higher = faster cleavage; RNA array
Method in brief: as §1

glucosamine-6-phosphate [3] = variants of: B1; assay: self-cleavage kobs at 2500 uM GlcN6P; higher = faster cleavage; RNA array
Method in brief: as §1

glucosamine-6-phosphate [4] = variants of: B1; assay: self-cleavage kobs at 10000 uM GlcN6P; higher = faster cleavage; RNA array
Method in brief: as §1

glucosamine-6-phosphate [5] = variants of: B1; assay: self-cleavage kobs at 640 uM GlcN6P; higher = faster cleavage; RNA array
Method in brief: as §1

glucosamine-6-phosphate [6] = variants of: B1; assay: KM; higher = weaker cofactor use; RNA array
Method in brief: as §1

glucosamine-6-phosphate [7] = variants of: B1; assay: self-cleavage kobs at 160 uM GlcN6P; higher = faster cleavage; RNA array
Method in brief: as §1

Variant | kcat (glucosamine-6-phosphate [1]) [s⁻¹] | self-cleavage kobs at 40 uM GlcN6P (glucosamine-6-phosphate [2]) [s⁻¹] | self-cleavage kobs at 2500 uM GlcN6P (glucosamine-6-phosphate [3]) [s⁻¹] | self-cleavage kobs at 10000 uM GlcN6P (glucosamine-6-phosphate [4]) [s⁻¹] | self-cleavage kobs at 640 uM GlcN6P (glucosamine-6-phosphate [5]) [s⁻¹] | KM (glucosamine-6-phosphate [6]) [µM] | self-cleavage kobs at 160 uM GlcN6P (glucosamine-6-phosphate [7]) [s⁻¹]
A48U U65C | 4.55e-05 ± 6.5e-06 | < 1e-05 | 4.16e-05 ± 1.4e-05 | 3.92e-05 ± 1.5e-05 |  |  | 
G41C U54A | 8.93e-05 ± 2e-05 |  | 7.27e-05 ± 1.5e-05 | 8.37e-05 ± 2.2e-05 | 7.27e-05 ± 1.6e-05 |  | 
A12C C50A C68G | 2.56e-05 ± 8.7e-06 |  |  |  |  |  | 
U46G A53C | 0.00122 ± 6.4e-05 |  | 0.000609 ± 9.9e-05 | 0.000938 ± 0.00012 | 0.000231 ± 4.3e-05 | 2790 ± 250 | 5.96e-05 ± 1.8e-05
G51A C71G | 2.05e-05 ± 3.5e-06 |  |  |  |  |  | 
A33U A53G C70U | 0.000178 ± 1.5e-05 |  |  | 5.75e-05 ± 9.2e-06 |  |  | 
G37C U54G U55G | 5.85e-05 ± 2.8e-06 |  |  | 4.79e-05 ± 1.5e-05 |  | 2190 ± 470 | 
G37A C67U | 0.000574 ± 0.0001 |  | 0.00036 ± 4.6e-05 | 0.000449 ± 4.9e-05 | 0.000109 ± 1.5e-05 | 2310 ± 720 | 4.58e-05 ± 1.1e-05
G44U C67G | 0.0189 ± 0.0043 | 0.00061 ± 6.9e-05 | 0.023 ± 0.0048 | 0.0148 ± 0.0022 | 0.00865 ± 0.0011 | 1120 ± 340 | 0.00226 ± 0.0003
U54C U56G | 0.0154 ± 0.0051 | 0.000282 ± 4.7e-05 |  | 0.0133 ± 0.0027 | 0.0032 ± 0.0011 | 2680 ± 1100 | 0.000649 ± 0.00019
A48U G51A | 1.23e-05 ± 5.9e-06 | < 1e-05 |  | < 1e-05 |  |  | 
G13C C70G | 2.09e-05 ± 5.8e-06 |  |  |  |  |  | 
G32A C58A | 0.00126 ± 0.00024 |  | 0.000498 ± 5.6e-05 | 0.00106 ± 0.00016 | 0.000201 ± 2.2e-05 | 3330 ± 920 | 7.42e-05 ± 1.4e-05
C16U G44U | 0.000229 ± 2.9e-05 |  | 0.000216 ± 4.3e-05 | 0.000197 ± 2.3e-05 | 7.8e-05 ± 1.7e-05 | 1160 ± 450 | 
A12U U65C | 0.0021 ± 0.00079 | 4.28e-05 ± 1.2e-05 | 0.00209 ± 0.00035 | 0.00151 ± 0.00034 | 0.000421 ± 9.9e-05 |  | 0.000217 ± 5.2e-05
A14U | 0.0182 ± 0.0048 | 0.000298 ± 5.5e-06 | 0.00942 ± 0.00041 | 0.0143 ± 0.00047 | 0.00328 ± 0.00015 | 2730 ± 850 | 0.00073 ± 3e-05
A39C U45G | 0.00234 ± 0.00083 | 6.34e-05 ± 1.1e-05 | 0.00114 ± 0.00018 | 0.00189 ± 0.00029 | 0.000759 ± 0.0001 | 2340 ± 1100 | 0.000127 ± 1.4e-05
U30A C58G | 5.56e-05 ± 1.8e-05 |  | 8.28e-05 ± 2.5e-05 | 4.77e-05 ± 1.1e-05 |  |  | 

Variant | kcat (glucosamine-6-phosphate [1]) [s⁻¹] | self-cleavage kobs at 40 uM GlcN6P (glucosamine-6-phosphate [2]) [s⁻¹] | self-cleavage kobs at 2500 uM GlcN6P (glucosamine-6-phosphate [3]) [s⁻¹] | self-cleavage kobs at 10000 uM GlcN6P (glucosamine-6-phosphate [4]) [s⁻¹] | self-cleavage kobs at 640 uM GlcN6P (glucosamine-6-phosphate [5]) [s⁻¹] | KM (glucosamine-6-phosphate [6]) [µM] | self-cleavage kobs at 160 uM GlcN6P (glucosamine-6-phosphate [7]) [s⁻¹]
U54G U55C | 0.00147 ± 0.0003 |  | 0.0012 ± 0.00027 | 0.00156 ± 0.00037 | 0.000646 ± 9.5e-05 | 670 ± 280 | 0.00036 ± 8.1e-05
C58U C71G | < 1e-05 |  |  |  |  |  | 
A36U C67G | 1.75e-05 ± 5.9e-06 |  |  |  |  |  | 
C11U C50A | < 1e-05 |  |  | < 1e-05 |  |  | < 1e-05
A39U U69A | 0.000214 ± 3.6e-05 |  | 0.000105 ± 1.3e-05 | 0.000197 ± 5.6e-05 | 5.02e-05 ± 1.2e-05 | 2430 ± 770 | 
A12C A48G | 5.38e-05 ± 6.8e-06 |  | 4.26e-05 ± 1.2e-05 | 4.66e-05 ± 7.1e-06 |  |  | 
A12G G41A | 0.00048 ± 0.00011 |  | 8.85e-05 ± 1.7e-05 | 0.000246 ± 3.7e-05 | 3.72e-05 ± 1.2e-05 | 9920 ± 3500 | 
U30G C67G | 0.000155 ± 9.6e-06 |  | 8.11e-05 ± 1e-05 | 0.000132 ± 1.6e-05 | 3.99e-05 ± 9.3e-06 | 2050 ± 310 | 
C10U U69C | 2.21e-05 ± 5.7e-06 |  |  |  |  |  | 
G37U C67G | < 1e-05 |  |  | < 1e-05 |  |  | 
A14U U49G | 0.000127 ± 2.5e-06 |  | 5.86e-05 ± 2.3e-05 | 9.65e-05 ± 9.5e-06 | 2.09e-05 ± 1e-05 | 3130 ± 200 | 
A36C C70U | < 1e-05 | < 1e-05 |  |  |  |  | 
G13C G32U | 0.000576 ± 4.2e-05 |  | 0.000258 ± 5.7e-05 | 0.000436 ± 7.7e-05 | 8.34e-05 ± 4.1e-05 | 3170 ± 470 | 
G13C G32A | 0.00943 ± 0.0032 | 0.000142 ± 1.5e-05 | 0.00305 ± 0.00052 | 0.00781 ± 0.00085 | 0.00124 ± 0.00016 | 3620 ± 1600 | 0.000338 ± 6.2e-05
U55A A64C | 0.000188 ± 3.5e-05 |  | 0.000144 ± 2.3e-05 | 0.000149 ± 1.3e-05 | 2.82e-05 ± 1.2e-05 |  | 
A14G C50G | 4.1e-05 ± 7.6e-06 |  | 4.52e-05 ± 2e-05 |  |  |  | 
U49A | 2.06e-05 ± 1.8e-06 | < 1e-05 | 2.11e-05 ± 3e-06 | 1.9e-05 ± 1.6e-06 |  |  | 
C16G C58A | 0.000242 ± 1.6e-05 |  | 0.000104 ± 1.8e-05 | 0.000178 ± 3.1e-05 | 3.73e-05 ± 9.2e-06 | 3440 ± 410 | 
